Data on four compounds can be found in publication PMC6793942, “The Ps and Qs of alarmone synthesis in Staphylococcus aureus” (PLoS ONE, 2019).

One data set deals with T1, Sm-RelQ (Streptococcus mutans, UniProt Q8DU97).
T1 construct: gene SMU_1046c
The following applies: allosteric activator; pGpp synthesis from 1 mM GMP + 1 mM ATP; 2 mM MgCl2; pH 9.0; 37°C. The source says:
AMP formation by anion exchange chromatography, fold change of rate on Sm-RelQ

The target in a further data set is T2, Sm-RelP (Streptococcus mutans, UniProt Q8DUK1).
T2 construct: gene SMU_926
The following applies: inhibitor; pGpp synthesis from 1 mM GMP + 1 mM ATP; 2 mM MgCl2; pH 9.0; 37°C. The source says: AMP formation by anion exchange chromatography, fold change of rate on Sm-RelP

Data set [1] concerns Nc1nc2c(ncn2[C@@H]2O[C@H](COP(=O)(O)O)[C@@H](OP(=O)(O)OP(=O)(O)O)[C@H]2O)c(=O)[nH]1. Description: purified protein. Particulars: hydrolysis (HD domain), 1 mM MnCl2, 10 mM MgCl2, pH 7.8, 25°C.
Data set [2] deals with Nc1nc2c(ncn2[C@@H]2O[C@H](COP(=O)(O)OP(=O)(O)O)[C@@H](OP(=O)(O)OP(=O)(O)O)[C@H]2O)c(=O)[nH]1. Description: purified protein. Particulars: hydrolysis (HD domain), 1 mM MnCl2, 10 mM MgCl2, pH 7.8, 25°C.
For data set [3], the system named is Nc1nc2c(ncn2[C@@H]2O[C@H](COP(=O)(O)OP(=O)(O)O)[C@@H](O)[C@H]2O)c(=O)[nH]1. Description: purified protein. The following applies: ppGpp synthesis (SYNTH domain), 8 mM ATP, 6 mM MgCl2, pH 7.8, 25°C.
Data set [4] relates to Nc1nc2c(ncn2[C@@H]2O[C@H](COP(=O)(O)OP(=O)(O)OP(=O)(O)O)[C@@H](O)[C@H]2O)c(=O)[nH]1. Description: purified protein. Particulars: pppGpp synthesis (SYNTH domain), 8 mM ATP, 6 mM MgCl2, pH 7.8, 25°C.
The subject of data set [5] is Nc1nc2c(ncn2[C@@H]2O[C@H](COP(=O)(O)OP(=O)(O)OP(=O)(O)O)[C@@H](OP(=O)(O)OP(=O)(O)O)[C@H]2O)c(=O)[nH]1. Description: purified protein. Particulars: hydrolysis (HD domain), 1 mM MnCl2, 10 mM MgCl2, pH 7.8, 25°C.
Another data set has as its target T3, EF-RelQ (Enterococcus faecalis, UniProt Q830U9).
T3 construct: gene EF_2671
Particulars: allosteric activator; ppGpp synthesis from 1 mM GDP + 1 mM ATP; 2 mM MgCl2; pH 9.0; 37°C. The source says: AMP formation by anion exchange chromatography, fold change of rate on EF-RelQ

The subject of data set [6] is Nc1nc2c(ncn2[C@@H]2O[C@H](COP(=O)(O)OP(=O)(O)O)[C@@H](O)[C@H]2O)c(=O)[nH]1. Description: product formation by anion exchange chromatography. Type of data set: biochemical, Staphylococcus aureus. Particulars: ppGpp synthesis, 2.5 mM ATP, 5 mM MgCl2, pH 9.0, no added alarmone. The source says: (§1) product formation by anion exchange chromatography on Sa-RelP
In data set [7] the test system is Nc1nc2c(ncn2[C@@H]2O[C@H](COP(=O)(O)O)[C@@H](O)[C@H]2O)c(=O)[nH]1. Description: product formation by anion exchange chromatography. Format: biochemical, Staphylococcus aureus. Particulars: pGpp synthesis, 2.5 mM ATP, 5 mM MgCl2, pH 9.0, no added alarmone, 625 ± 165 in the source.
Excerpt: as §1

Data set [8] concerns Nc1nc2c(ncn2[C@@H]2O[C@H](COP(=O)(O)OP(=O)(O)OP(=O)(O)O)[C@@H](O)[C@H]2O)c(=O)[nH]1. Description: product formation by anion exchange chromatography. Format: biochemical, Staphylococcus aureus. The following applies: pppGpp synthesis, 2.5 mM ATP, 5 mM MgCl2, pH 9.0, no added alarmone.
Excerpt: as §1

T1 sequence (Q8DU97 entry or part of it): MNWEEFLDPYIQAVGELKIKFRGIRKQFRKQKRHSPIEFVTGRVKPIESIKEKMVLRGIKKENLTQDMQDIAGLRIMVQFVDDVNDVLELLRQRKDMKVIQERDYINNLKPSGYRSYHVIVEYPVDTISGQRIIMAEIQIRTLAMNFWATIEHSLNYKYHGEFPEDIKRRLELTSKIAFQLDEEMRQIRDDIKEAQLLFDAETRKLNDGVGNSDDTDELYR
T3 sequence (Q830U9 entry or part of it): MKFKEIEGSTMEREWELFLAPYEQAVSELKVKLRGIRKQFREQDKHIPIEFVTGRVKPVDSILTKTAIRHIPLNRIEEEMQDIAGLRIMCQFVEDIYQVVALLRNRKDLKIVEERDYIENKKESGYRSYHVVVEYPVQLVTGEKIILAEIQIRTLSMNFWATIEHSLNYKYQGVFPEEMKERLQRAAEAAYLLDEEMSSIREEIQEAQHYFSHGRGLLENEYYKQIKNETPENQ
T2 sequence (Q8DUK1 entry or part of it): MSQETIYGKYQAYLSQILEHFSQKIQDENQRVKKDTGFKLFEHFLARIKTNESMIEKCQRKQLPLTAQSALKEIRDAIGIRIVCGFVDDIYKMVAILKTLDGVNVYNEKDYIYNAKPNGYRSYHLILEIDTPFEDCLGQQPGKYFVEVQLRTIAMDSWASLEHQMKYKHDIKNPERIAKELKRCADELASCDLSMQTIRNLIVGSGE

In the case of `Nc1nc2c(ncn2[C@@H]2O[C@H](COP(=O)(O)OP(=O)(O)OP(=O)(O)O)[C@@H](OP(=O)(O)OP(=O)(O)O)[C@H]2O)c(=O)[nH]1` [pppGpp, guanosine-5’-triphosphate 3’-diphosphate], the “+ 100 μM pppGpp / Fold-change” value on Sm-RelQ worked out at 572 ± 149 fold; at Sm-RelP, 0.3 ± 0.1 fold.

In general, Km refers to the concentration of substrate that gives half-maximal velocity. Broadly, the Vmax is the top rate of the reaction or transport when substrate is in excess. As usually defined, the kcat is the maximal rate divided by the concentration of active sites. One may read the kcat/Km as the second-order rate constant that governs catalysis at low substrate concentration. Consider “Sa-Rel (Staphylococcus aureus subsp. aureus MRSA252)”, for which the Km in [1] stood at 16.9 ± 2.1 µM; in data set [2], 21.7 ± 2.8 µM; in data set [3] it was 434.9 ± 61.2 µM; in [4], 114.3 ± 15.7 µM; in data set [5] it was 14.2 ± 1.3 µM. Further, the Vmax in data set [1] was determined as 4.08 µM/min; in [2], 3.6 µM/min; in data set [3], 1.08 µM/min; in [4] it was 3.84 µM/min; in [5], 4.68 µM/min. For the same compound, the kcat turned out to be 0.68 s⁻¹ in data set [1]; 0.6 s⁻¹ in data set [2]; 0.018 s⁻¹ in [3]; 0.064 s⁻¹ in data set [4]; 0.78 s⁻¹ in [5]. For the same compound, the kcat/Km in [1] turned out to be 40000 M⁻¹ s⁻¹; in [2], 27500 M⁻¹ s⁻¹; in data set [3] it was 41 M⁻¹ s⁻¹; in [4], 560 M⁻¹ s⁻¹; in data set [5] it was 55200 M⁻¹ s⁻¹.

As for `Nc1nc2c(ncn2[C@@H]2O[C@H](COP(=O)(O)OP(=O)(O)O)[C@@H](OP(=O)(O)OP(=O)(O)O)[C@H]2O)c(=O)[nH]1` [ppGpp, guanosine-3’,5’-bis(diphosphate)], the “+ 100 μM ppGpp / Fold-change” value at EF-RelQ is recorded as 7.8 ± 0.6 fold.

In the case of “Sa-RelP (Staphylococcus aureus subsp. aureus NCTC 8325)”, in [6], the Michaelis-Menten constant (Km) is 177 ± 52 µM, the Vmax was determined as 12 µM/min, the kcat amounted to 0.78 ± 0.08 s⁻¹ and the kcat/Km stood at 4430 ± 900 M⁻¹ s⁻¹. Further, in data set [7], the Km was found to be 625 ± 169 µM, the Vmax is 3.6 µM/min, the kcat turned out to be 0.06 ± 0.01 s⁻¹ and the kcat/Km came out at 90 ± 20 M⁻¹ s⁻¹. Besides, in data set [8], the Michaelis-Menten constant (Km) amounted to 80 ± 21 µM, the maximal velocity (Vmax) was found to be 6 µM/min, the turnover number (kcat) was found to be 0.38 ± 0.03 s⁻¹ and the kcat/Km amounted to 4750 ± 1000 M⁻¹ s⁻¹.
